# Measured values as given in patent US20090280480A1.
# T1: NM, the N-terminal and middle region of Saccharomyces cerevisiae Sup35 (soluble, unpolymerized) (Saccharomyces cerevisiae), P05453
# T1 chain: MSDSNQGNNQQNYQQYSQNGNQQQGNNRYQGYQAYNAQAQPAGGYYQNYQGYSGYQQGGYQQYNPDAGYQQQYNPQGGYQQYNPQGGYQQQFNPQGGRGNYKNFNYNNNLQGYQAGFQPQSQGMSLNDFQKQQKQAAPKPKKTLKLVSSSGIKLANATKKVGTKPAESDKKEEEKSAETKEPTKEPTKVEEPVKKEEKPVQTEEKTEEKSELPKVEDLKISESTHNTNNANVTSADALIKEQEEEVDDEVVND
# B1: NM, the N-terminal and middle region of Saccharomyces cerevisiae Sup35 (soluble, unpolymerized), P05453 1-253 (protein)
# chain: T1 chain
# How the values were obtained:
# [1] = molecular target: T1, NM, the N-terminal and middle region of …; assay: Microcon YM-100 (100 kDa cut off) filtration of fibrillization reactions; details: remark: other sources report otherwise
# [2] = molecular target: T1, NM, the N-terminal and middle region of …; assay: quaternary structure analysis of soluble NM; method not named; details: remark: other sources report otherwise
binder,measurement,setting,value
B1,percent of total NM in an oligomeric state,[1],10%
same,percent monomeric after dilution out of denaturant,[2],87%
